Data published in patent US20180009871A1 (INTARCIA THERAPEUTICS, published 2018).
Where no end group is shown, it is not given here. [ ]: non-standard residue; d: D form. Aib = CC(C)(N)C(=O)O

Assays:
[1] = target: human glucagon receptor (GCGR) (human, UniProt P47871 26-477); assay: cell-based or functional assay
[2] = target: human GLP-1 receptor (GLP-1R) (human, UniProt P43220 24-463); assay: cell-based or functional assay
Sequence of human GLP-1 receptor (GLP-1R) (P43220 24-463): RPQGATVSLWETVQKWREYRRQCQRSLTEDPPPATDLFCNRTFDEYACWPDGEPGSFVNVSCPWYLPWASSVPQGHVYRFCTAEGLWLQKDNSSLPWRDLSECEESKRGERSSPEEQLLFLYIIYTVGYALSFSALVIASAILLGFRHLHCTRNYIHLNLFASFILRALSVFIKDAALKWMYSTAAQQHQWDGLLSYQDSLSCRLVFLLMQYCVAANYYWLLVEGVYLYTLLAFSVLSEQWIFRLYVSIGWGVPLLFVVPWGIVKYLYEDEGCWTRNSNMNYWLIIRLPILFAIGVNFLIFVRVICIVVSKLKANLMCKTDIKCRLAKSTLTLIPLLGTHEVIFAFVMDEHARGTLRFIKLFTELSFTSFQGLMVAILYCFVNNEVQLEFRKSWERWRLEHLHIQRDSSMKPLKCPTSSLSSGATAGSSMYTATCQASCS

YSHGTFTSDYSKYLDSARAQEFVKWLEDEPSSGAPPPS-NH2 [Compound A5]
hGCGR pEC50 (cAMP) [1]: 11.8 pEC50
hGLP1 pEC50 (cAMP) [2]: 5.8 pEC50

B1: Compound A6 (peptide)
peptide: WSQGTFTSDYSKYLD[Aib]KRAQEFV[Aib]WLEDEPSSGAPPPS-OH
modifications: N-terminus assumed
SMILES: CC(C)C[C@H](NC(=O)[C@H](Cc1ccc(O)cc1)NC(=O)[C@H](CCCCN)NC(=O)[C@H](CO)NC(=O)[C@H](Cc1ccc(O)cc1)NC(=O)[C@H](CC(=O)O)NC(=O)[C@H](CO)NC(=O)[C@@H](NC(=O)[C@H](Cc1ccccc1)NC(=O)[C@@H](NC(=O)CNC(=O)[C@H](CCC(N)=O)NC(=O)[C@H](CO)NC(=O)[C@@H](N)Cc1c[nH]c2ccccc12)[C@@H](C)O)[C@@H](C)O)C(=O)N[C@@H](CC(=O)O)C(=O)NC(C)(C)C(=O)N[C@@H](CCCCN)C(=O)N[C@@H](CCCNC(=N)N)C(=O)N[C@@H](C)C(=O)N[C@@H](CCC(N)=O)C(=O)N[C@@H](CCC(=O)O)C(=O)N[C@@H](Cc1ccccc1)C(=O)N[C@H](C(=O)NC(C)(C)C(=O)N[C@@H](Cc1c[nH]c2ccccc12)C(=O)N[C@@H](CC(C)C)C(=O)N[C@@H](CCC(=O)O)C(=O)N[C@@H](CC(=O)O)C(=O)N[C@@H](CCC(=O)O)C(=O)N1CCC[C@H]1C(=O)N[C@@H](CO)C(=O)N[C@@H](CO)C(=O)NCC(=O)N[C@@H](C)C(=O)N1CCC[C@H]1C(=O)N1CCC[C@H]1C(=O)N1CCC[C@H]1C(=O)N[C@@H](CO)C(=O)O)C(C)C
hGCGR pEC50 (cAMP) [1]: 11.7 pEC50
hGLP1 pEC50 (cAMP) [2]: 5.3 pEC50

B2: Compound A4 (peptide)
peptide: YSHGTFTSDYSKYLD[Aib]KRAQEFVIWLEDEPSSGAPPPS-OH
modifications: N-terminus assumed
SMILES: CC[C@H](C)[C@H](NC(=O)[C@@H](NC(=O)[C@H](Cc1ccccc1)NC(=O)[C@H](CCC(=O)O)NC(=O)[C@H](CCC(N)=O)NC(=O)[C@H](C)NC(=O)[C@H](CCCNC(=N)N)NC(=O)[C@H](CCCCN)NC(=O)C(C)(C)NC(=O)[C@H](CC(=O)O)NC(=O)[C@H](CC(C)C)NC(=O)[C@H](Cc1ccc(O)cc1)NC(=O)[C@H](CCCCN)NC(=O)[C@H](CO)NC(=O)[C@H](Cc1ccc(O)cc1)NC(=O)[C@H](CC(=O)O)NC(=O)[C@H](CO)NC(=O)[C@@H](NC(=O)[C@H](Cc1ccccc1)NC(=O)[C@@H](NC(=O)CNC(=O)[C@H](Cc1c[nH]cn1)NC(=O)[C@H](CO)NC(=O)[C@@H](N)Cc1ccc(O)cc1)[C@@H](C)O)[C@@H](C)O)C(C)C)C(=O)N[C@@H](Cc1c[nH]c2ccccc12)C(=O)N[C@@H](CC(C)C)C(=O)N[C@@H](CCC(=O)O)C(=O)N[C@@H](CC(=O)O)C(=O)N[C@@H](CCC(=O)O)C(=O)N1CCC[C@H]1C(=O)N[C@@H](CO)C(=O)N[C@@H](CO)C(=O)NCC(=O)N[C@@H](C)C(=O)N1CCC[C@H]1C(=O)N1CCC[C@H]1C(=O)N1CCC[C@H]1C(=O)N[C@@H](CO)C(=O)O
hGCGR pEC50 (cAMP) [1]: 11.8 pEC50
hGLP1 pEC50 (cAMP) [2]: < 5 pEC50
